Experimental data published in patent publication US20260242458A1 (NOVAROCK BIOTHERAPEUTICS, published 2026).
Positions count from the first letter of the chain named.

T1: recombinant human IL-25 protein (human, UniProt Q9H293 33-177)
T1 sequence: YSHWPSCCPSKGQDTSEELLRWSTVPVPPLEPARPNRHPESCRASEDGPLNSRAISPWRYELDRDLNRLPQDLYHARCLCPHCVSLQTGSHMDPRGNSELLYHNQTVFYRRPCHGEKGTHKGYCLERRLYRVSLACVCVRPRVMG

T2: recombinant mouse IL-25 protein (mouse, UniProt Q8VHH8 17-169)
T2 construct: Bought (Sino Biological Inc, catalog no: 50138-M07H)
T2 sequence: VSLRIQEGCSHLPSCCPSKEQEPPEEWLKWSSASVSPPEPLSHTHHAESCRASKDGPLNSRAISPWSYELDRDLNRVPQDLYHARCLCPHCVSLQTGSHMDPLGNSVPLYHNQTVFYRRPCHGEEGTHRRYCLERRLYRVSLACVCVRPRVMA

T3: recombinant cynomolgus IL-25 protein (cynomolgus monkey, UniProt Q9H293 33-177 (human entry), limits assumed)
T3 construct: Bought (Sino Biological Inc, customized order); also called cyno IL-25
T3 chain: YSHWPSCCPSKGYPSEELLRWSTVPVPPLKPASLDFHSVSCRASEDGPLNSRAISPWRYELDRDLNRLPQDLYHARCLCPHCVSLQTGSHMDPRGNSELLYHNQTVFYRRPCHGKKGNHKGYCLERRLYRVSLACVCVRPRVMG

B1: IL25Ab1 (antibody, V domains shown)
VH: QVQLKESGPGLVAPSQSLSITCTVSGFSLTDYGINWVRQPPGKGLEWLGMIWGDGVTHYNSVLKSRLSISKDNSMSQIFLKMNSLQTDDTARYYCARTLFYDGTLYYYAMDYWGQGTSVTVSS
VL: QIVLTQSPATMSASPGEKVTMTCSASSSVTYMYWYQQKTGSSPRLLIYDTPNLASGVPVRFSGSGSGTSYSLTISRVEAEDAATYYCQQWSSYPHTWTFGGGTKLEIK
B2: IL25Ab2 (antibody, V domains shown)
VH: QVTLKESGPGILQPSQTLSLTCSFSGFSLSTSGMGVGWIRQPSGKGLEWLAHIWWDDVKQYNPALQSRLTISKDTSSSQVFLKIASVDIADIATYYCARIGPVHHGFPYWGQGALVTVSS
VL: QIVLTQSPAIMSAFPGEKVTMSCSASSSVNYMYWHQQKPGSSPRLLIYDTSNLASGVPVRFSGSGSGTSYSLTISRMEAEDAATYYCQQWTSYPPMYTFGGGTKLEIK
B3: IL25Ab7 (antibody, IgG1, V domains shown)
VH: QVQLVQSGAEVKKPGASVKVSCKASGYSFTGYTMNWVRQAPGQGLEWMGLINPDNGGTSYKQKFQGRVTMTVDKSISTAYMELSRLRSDDTAVYYCAREGYYGPSPFHHYAMDYWGQGTLVTVSS
VL: DIQMTQSPSSLSASVGDRVTITCQASQDISNYLNWYQQKPDGTIKLLIYYTSTLHTGVPSRFSGSGSGTDYTFTISSLQPEDIATYYCQQYSKLPYTFGQGTKLEIK
B4: IL25Ab6 (antibody, V domains shown)
VH: B3 VH
VL: B3 VL with D41G, G42K, T43A, I44P
B5: IL25Ab8 (antibody, IgG1, V domains shown)
VH: B3 VH with P41H, Q43K, G44N, Y60H
VL: B3 VL with F73L, Q100G
B6: IL25Ab9 (antibody, V domains shown)
VH: B3 VH
VL: B3 VL with D41G, G42K, T43A, I44P
B7: IL25Ab11 (antibody, IgG1, V domains shown)
VH: B3 VH with P41H, Q43K, G44N, Y60H
VL: B3 VL with F73L, Q100G
B8: IL25Ab10 (antibody, V domains shown)
VH: B3 VH
VL: B3 VL
B9: IL25Ab7 Fab (Fab, V domains shown)
VH: B3 VH
VL: B3 VL
notes: VH/VL assigned as for IL25Ab7
B10: IL25Ab6 Fab (Fab, V domains shown)
VH: B3 VH
VL: B3 VL with D41G, G42K, T43A, I44P
B11: IL25Ab8 Fab (Fab, V domains shown)
VH: B3 VH with P41H, Q43K, G44N, Y60H
VL: B3 VL with F73L, Q100G
notes: VH/VL assigned as for IL25Ab8
B12: IL25Ab3 Fab (Fab, V domains shown)
VH: EVQLQQSGPELVKPGGSVRISCKASGYSFTGYTMNWVKQSHGKNLEWIGLINPDNGGTSHKQRFMGKATLTVDKSSSTAYMELLSLTSEDSAVYYCAREGYYGPSPFHHYAMDYWGQGTSVTVSS
VL: DIQMTQTTSSLSASLGDRVTISCSASQDISNYLNWYQQKPDGTIKLLIYYTSTLHSGVPSRFSGSGSGTDYSLTISNLEPEDIATYYCQQYSKLPYTFGGGTKLEIK
notes: VH/VL assigned as for IL25Ab3; also called murine parental Fab

Biological target: T1, recombinant human IL-25 protein
Assay: cell-based or functional assay

B1 and B2 are within 1.5-fold of each other in “IC50, IL-25 induced NF-kB signaling (SEAP) in HEK-Blue IL-17 reporter cells” value (shortened to “IC50, IL-25 induced NF-kB signaling”): 0.052 nM for the first, 0.068 nM for the second.

Biological target: T1, recombinant human IL-25 protein
Assay: cell-based or functional assay
Remark: another data set of the same source

B1 and B2 are within 1.5-fold of each other in “IC50, IL-25 induced CXCL1 production in HT-29 cells” value (“IC50 … in HT-29 cells” below): 0.071 nM for the first, 0.089 nM for the second.

Biological target: T1, recombinant human IL-25 protein
Assay: cell-based or functional assay
Remark: another data set of the same source

B1 and B2 are within 1.5-fold of each other in “IC50, IL-25 induced IL-5 production in human PBMC” value (from here on “IC50 … in human PBMC”): 0.12 nM for the first, 0.14 nM for the second.

Biological target: T1, recombinant human IL-25 protein
Assay: cell-based or functional assay
Remark: another data set of the same source

B3 and B4 are within 1.5-fold of each other in “IC50, IL-25 induced NF-kB signaling” value: 0.042 nM for the first, 0.048 nM for the second.

B5 and B6 are within 1.5-fold of each other in “IC50, IL-25 induced NF-kB signaling” value: 0.041 nM for the first, 0.043 nM for the second.

B7 and B8 are within 1.5-fold of each other in “IC50, IL-25 induced NF-kB signaling” value: 0.037 nM for the first, 0.052 nM for the second.

Biological target: T1, recombinant human IL-25 protein
Assay: cell-based or functional assay
Remark: another data set of the same source

B3 and B4 are within 1.5-fold of each other in “IC50 … in HT-29 cells” value: 0.183 nM for the first, 0.225 nM for the second.

B5 and B6 are within 1.5-fold of each other in “IC50 … in HT-29 cells” value: 0.199 nM for the first, 0.225 nM for the second.

B7 and B8 are within 1.5-fold of each other in “IC50 … in HT-29 cells” value: 0.187 nM for the first, 0.198 nM for the second.

Biological target: T1, recombinant human IL-25 protein
Assay: cell-based or functional assay
Remark: another data set of the same source

First: B3
Second: B4
The “IC50 … in human PBMC” value of the first is 2.2-fold higher: 0.85 nM for the first, 0.381 nM for the second.

Compared with B5, B6 is 2.4-fold lower in “IC50 … in human PBMC” value: 1.04 nM for the first, 0.435 nM for the second.

Compared with B7, B8 is 1.5-fold higher in “IC50 … in human PBMC” value: 0.953 nM for the first, 1.43 nM for the second.

Biological target: T1, recombinant human IL-25 protein
Assay: BLI, Fab; species of IL-25 not stated, taken as human

B9 and B10 are within 1.5-fold of each other in Kd: 1.8 nM for the first, 1.86 nM for the second.

B11 and B12 are within 1.5-fold of each other in Kd: 1.78 nM for the first, 1.89 nM for the second.

B9 and B10 are within 1.5-fold of each other in koff: 0.00029 s⁻¹ for the first, 0.000249 s⁻¹ for the second.

B11 and B12 are within 1.5-fold of each other in koff: 0.000251 s⁻¹ for the first, 0.000285 s⁻¹ for the second.

B9 and B10 are within 1.5-fold of each other in kon: 161000 M⁻¹ s⁻¹ for the first, 134000 M⁻¹ s⁻¹ for the second.

B11 and B12 are within 1.5-fold of each other in kon: 141000 M⁻¹ s⁻¹ for the first, 150000 M⁻¹ s⁻¹ for the second.

Biological target: T1, recombinant human IL-25 protein
Assay: ELISA, IL-25 coated, goat anti-human IgG-HRP detection
Procedure: (§1) In this study, the ability of five disclosed anti-IL-25 antibodies (IL25Ab1 to Ab5) binding to both human and mouse IL-25 was evaluated using ELISA. Briefly, recombinant human IL-25 protein (Acro, catalog no: IL5-H4221, lot no: 401-20CNF1-UT) or recombinant mouse IL-25 protein (Sino Biological Inc, catalog no: 50138-M07H, lot no: LC15AP0607) was directly coated to ELISA plates, respectively. Recombinant antibodies were then added to the plates followed by detection using goat-anti-human IgG-HRP (Jackson ImmunoResearch, catalog no: 109-035-098, Lot no: 157400). After the addition of ABTS (Moss Inc., catalog no: ABTS-1000, Lot no: 03086202) substrate, ELISA plates were read using an ELISA plate reader (Bioteck).

B1 and B2 are within 1.5-fold of each other in EC50: 0.02 nM for the first, 0.017 nM for the second.

Biological target: T2, recombinant mouse IL-25 protein
Assay: as above
Procedure: as §1

B1 and B2 are within 1.5-fold of each other in EC50: 0.015 nM for the first, 0.012 nM for the second.

Biological target: T1, recombinant human IL-25 protein
Assay: ELISA, IL-25 coated, goat anti-human kappa light chain-HRP detection
Procedure: (§2) In this study, the ability of three humanized anti-IL-25 antibodies generated in hIgG1 (IL25Ab6 to Ab8) and hIgG1 YTE formats (IL25Ab9 to Ab11) binding to both human, mouse and cynomolgus IL-25 was evaluated using ELISA. Briefly, recombinant human IL-25 protein (Acro, catalog no: IL5-H4221, lot no: 401-20CNF1-UT), recombinant mouse IL-25 protein (Sino Biological Inc, catalog no: 50138-M07H, lot no: LC15AP0607) or recombinant cynomolgus IL-25 protein (Sino Biological Inc, catalog no: customized order, lot no: MB17MA2715) was directly coated to ELISA plates, respectively. Recombinant antibodies were then added to the plates followed by detection using goat-anti-human Kappa Light Chain antibody HRP (Novus, catalog no: NBP1-75064, Lot no: 68-188-010920). After the addition of ABTS (Moss Inc., catalog no: ABTS-1000, Lot no: 03086202) substrate, ELISA plates were read using an ELISA plate reader (Bioteck).

B3 and B4 are within 1.5-fold of each other in EC50: 0.327 nM for the first, 0.302 nM for the second.

B5 and B6 are within 1.5-fold of each other in EC50: 0.404 nM for the first, 0.312 nM for the second.

B7 and B8 are within 1.5-fold of each other in EC50: 0.318 nM for the first, 0.364 nM for the second.

Biological target: T2, recombinant mouse IL-25 protein
Assay: as above
Procedure: as §2

B3 and B4 are within 1.5-fold of each other in EC50: 0.243 nM for the first, 0.242 nM for the second.

B5 and B6 are within 1.5-fold of each other in EC50: 0.332 nM for the first, 0.232 nM for the second.

B7 and B8 are within 1.5-fold of each other in EC50: 0.258 nM for the first, 0.284 nM for the second.

Biological target: T3, recombinant cynomolgus IL-25 protein
Assay: as above
Procedure: as §2

B3 and B4 are within 1.5-fold of each other in EC50: 0.245 nM for the first, 0.241 nM for the second.

B5 and B6 are within 1.5-fold of each other in EC50: 0.295 nM for the first, 0.222 nM for the second.

B7 and B8 are within 1.5-fold of each other in EC50: 0.239 nM for the first, 0.266 nM for the second.

Biological target: T1, recombinant human IL-25 protein
Assay: BLI (Octet), antibody captured on anti-human Fc biosensor, human IL-25 as analyte
Procedure: The binding kinetics of the disclosed anti-IL-25 antibodies to recombinant human IL-25 was determined by Octet® Bio-Layer Interferometry (BLI) systems by Sartorius. The assay uses anti-IL-25 monoclonal antibodies as the ligand and recombinant human IL-25 protein as the analyte.
Briefly, the assays were performed by first capturing 5 μg/ml of anti-IL-25 antibodies using anti-human Fc Octet biosensors. The mAb-captured biosensors were then submerged in wells containing serially diluted human IL-25 for 4-6 minutes, followed by a 10-15 minute dissociation time. The binding sensorgrams were collected and analyzed by the Octet Data Analysis software.

B1 and B2 cannot be ordered by Kd: under 0.001 nM for the first, under 0.001 nM for the second.

B1 and B2 cannot be ordered by koff: under 1e-07 s⁻¹ for the first, under 1e-07 s⁻¹ for the second.

B1 and B2 are within 1.5-fold of each other in kon: 1.25e+06 M⁻¹ s⁻¹ for the first, 1.36e+06 M⁻¹ s⁻¹ for the second.

Biological target: T3, recombinant cynomolgus IL-25 protein
Assay: ELISA: recombinant cynomolgus IL-25 coated on the plate, detection with goat-anti-human Kappa Light Chain antibody HRP, ABTS, OD 405
Procedure: as §2, with “another” for “this”, “five disclosed” for “three humanized”, “(IL25Ab1” for “generated in hIgG1 (IL25Ab6”, “Ab5)” for “Ab8) and hIgG1 YTE formats (IL25Ab9 to Ab11)”, “to” for “to both human, mouse and”, “401-20CNF1-UT)” for “401-20CNF1-UT), recombinant mouse IL-25 protein (Sino Biological Inc, catalog no: 50138-M07H, lot no: LC15AP0607)”

B1 and B2 are the same in “EC50 (read off the curve)” value: about 0.1 nM for the first, about 0.1 nM for the second.
